# Patent US20220095596A1, “USE OF ECM1 GENE-KNOCKOUT MOUSE IN SCREENING OF ANTI-HEPATIC FIBROSIS DRUG” (CENTER FOR EXCELLENCE IN MOLECULAR CELL SCIENCE, CHINESE …, priority 2018, published 2022)
# How the values were obtained:
# [1] = test system: primary stellate cells (HSC); assay: Self-activation of primary stellate cells (HSC) cultured in vitro, related gene expression by RT-PCR; type: cell-based; conditions: ECM1 protein 50 µg/ml, cRGD 10 µg/ml; WT mouse HSC cultured in vitro 2 weeks, vs unrelated IgG (NC)
# Procedure: B: Primary stellate cells (HSC) from the liver of wild-type mouse (WT) are isolated and cultured in vitro for 2 weeks. Recombinant mouse ECM1 protein ([…]), cRGD ([…]) or unrelated IgG protein ([…]) are added to the culture medium as negative control (NC). Changing fresh culture medium every 3 days. Two weeks later, It is lysed with TRIZO and mRNA is extracted, and cDNA is obtained by reverse transcription. Finally, the expression of related genes is detected by RT-PCR.
# The primary stellate cells (HSC) of the mouse liver will self-activate during in vitro culture. This is because of the change in culture conditions, the Latent TGF-β1 secreted by the cells will be activated by integrin αv on the cell surface to activate stellate cells (HSC). In this process, the addition of integrin αv inhibitor (cRGD) or TGF-β1 neutralizing antibody will inhibit the self-activation of stellate cells (HSC).
# Therefore, primary stellate cells (HSC) from the liver of wild-type mice (WT) were isolated and cultured in vitro for 2 weeks. Recombinant mouse ECM1 protein ([…]), cRGD ([…]) or unrelated IgG protein ([…]) were added to the culture medium as negative control (NC). Changing fresh culture solution every 3 days. […] Finally, the expression of related genes was detected by RT-PCR to determine the activation degree of primary stellate cells (HSC).
# [2] = test system: Latent TGF-β1 activation on the surface of stellate cells (HSC); assay: TGF-β1 activity reporter co-culture of primary HSC with NIH-3T3 luciferase reporter cells; type: cell-based; conditions: 50 g/ml in culture medium, 16 hours of culture, WT mouse HSC with NIH-3T3 reporter cells, vs unrelated IgG (NC)
# Procedure: A: Primary stellate cells (HSC) from the liver of wild-type mice (WT) are isolated and co-cultured with NIH-3T3 cells containing the TGF-β1 activity reporter system. Recombinant mouse ECM1 protein ([…]), cRGD ([…]) or unrelated IgG protein ([…]) are added to the culture medium as negative control (NC). After 16 hours of the culture, the cells are lysed, and Luciferase activity in the lysate is detected.
# The process of Latent TGF-β1 activation to TGF-β1 is a transient effect. Activated TGF-β1 will bind to TGF-β1 receptor on the adjacent cell surface, phosphorylating the downstream SMAD protein, and then activating the downstream gene expression. In order to better detect the process of Latent TGF-β1 activation to TGF-β1, we used a co-culture system to detect the […] activation process that occurs on the surface of HSC stellate cells. A luciferase reporter gene was stably transfected into NIH-3T3 cells. There are 4 repeated SMAD binding sites in the upstream of this reporter gene. […]
# Firstly, primary stellate cells (HSC) of wild-type mouse (WT) liver were isolated and co-cultured with NIH-3T3 cells containing TGF-β1 activity reporter system. […] After 16 hours of culture, the cells were lysed, and Luciferase activity in the lysate was detected. […]
Molecule,"activation of stellate cells (HSC), expression of related genes by RT-PCR [1]","activation of Latent TGF-β1 on the surface of stellate cells (HSC), Luciferase activity [2]"
cRGD [reference compound],significantly inhibit,
"recombinant mouse ECM1 protein: Recombinant mouse extracellular matrix protein 1 added to the culture medium (protein, UniProt Q61508 20-559, looked up) Extracellular matrix protein 1: ASEGAFKASDQREMTPERLFQHLHEVGYAAPPSPPQTRRLRVDHSVTSLHDPPLFEEQREVQPPSSPEDIPVYEEDWPTFLNPNVDKAGPAVPQEAIPLQKEQPPPQVHIEQKEIDPPAQPQEEIVQKEVKPHTLAGQLPPEPRTWNPARHCQQGRRGVWGHRLDGFPPGRPSPDNLKQICLPERQHVIYGPWNLPQTGYSHLSRQGETLNVLETGYSRCCRCRSDTNRLDCLKLVWEDAMTQFCEAEFSVKTRPHLCCRLRGEERFSCFQKEAPRPDYLLRPCPVHQNGMSSGPQLPFPPGLPTPDNVKNICLLRRFRAVPRNLPATDAIQRQLQALTRLETEFQRCCRQGHNHTCTWKAWEGTLDGYCERELAIKTHPHSCCHYPPSPARDECFAHLAPYPNYDRDILTLDLSRVTPNLMGQLCGSGRVLSKHKQIPGLIQNMTIRCCELPYPEQACCGEEEKLAFIENLCGPRRNSWKDPALCCDLSPEDKQINCFNTNYLRNVALVAGDTGNATGLGEQGPTRGTDANPAPGSKEE",significantly inhibit,significantly inhibit
